Like-named read-outs stand apart in the source and are kept apart here.

The target in data set [1] is T1, NS5B(Δ21)-FlAsH-His (RNA-dependent RNA polymerase) (Hepatitis C virus genotype 2a, UniProt Q99IB8 2443-3012). The experiment in a line: EMSA. On the technique in general: Mobility shift assays separate free from complexed probe on a gel.
The target of data set [2] is T1, NS5B(Δ21)-FlAsH-His (RNA-dependent RNA …). The data set can be described thus: EMSA. The source holds these as a separate data set.

B1: Synthetic RNA (structured_RNA)
RNA: AGGGUUUUUUUUUUUAUUAUUUAUUCUUUAUUUUUCUUGCGUAGUUUUCUACG
Regarding B1, the binding result in data set [1] is “binds”.

B2: 5'UTR RNA (ssRNA)
RNA: AUACUAACGCCAUGGCUAGGCGCUUUCUGCGUGAAGACAGUAGUUCCUCACAGGGGAGUGAUUCAUGGCGGAGUGUCGCCCCU
For B2, in data set [2], the binding result is “binds”.

The values are drawn from doi:10.1101/2025.09.08.674988.
